Laboratory results published in paper PMC3984498.

Target: V[2]-TRF2ΔBΔM
Test: split reporter

- PCA fluorescence lower than with wild-type TRF2: 45%
Substance: Venus fragment-tagged Ku70 (V[1]-Ku70 / V[2]-Ku70) (from UniProt P12956 1-609) (natural protein)
